B1: TPR t1 (parent)
chain: GACCAAUCUGCCCUCAGAGCUCGAGAACAUCUUCGGAUGCAGAGGAGGCAGGCUUCGGUGGCGCGAUAGCGCCAACGUCCUCAACCUCCAAUGCAUCCCACCACAUGAUGAUGCCUGAAGAGCCUUGGUUUUUUG

Variants of: B1
Assay: polymerase ribozyme fitness, log enrichment relative to wild type (log ratio); higher = more active; in vitro selection for triplet polymerase activity
Method in brief: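 Fitness compares each genotype's enrichment to that of the wild type on a logarithmic scale, averaging replicates with inverse-variance weights. The logarithm is base 2. Enrichment came from Illumina sequencing of input and output libraries after one triplicate round of in vitro selection, which included frozen incubation at −7 °C, of PCR-built, transcribed mutant libraries of each subunit of a heterodimeric triplet polymerase ribozyme. Only genotypes with ≥10 input reads and ≥1 read per output were kept.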

Row | Variant | polymerase ribozyme fitness (log ratio)
1 | C72A G117U | -2.32
2 | C11G U32A C34U C115G | -8.31
3 | C31U U81A C88G A95U U112A | -6.66
4 | G17U G71U | -2.1
5 | G17C U38G C70G A95C C99A C104U A105G G110C | -6.76
6 | U87C C99U U129G | -3.62
7 | C11U A118U | -0.464
8 | U21C C70U | -0.476
9 | C28U G45U C114U | -4.18
10 | G17U C20G G52A G113A A119G | -2.03
11 | A27U G61U C102U U109G | -5.55
12 | A43U C73U C86U U125G | -2.65
13 | G47U G60U | -1.15
14 | C3U C72U U106C | -1.21
15 | C28U G71C U87G | -3.85
16 | G71U C102U | -1.69
17 | C72A G107A C124G | -5.06
18 | A43U A46G C62G U106A | -5.98
19 | C22A C31G G61A C102A C123G | -7.56
20 | C40U G47A U109A C114U | -6.24
21 | C40A A90C G93U | -1.13

Row | Variant | polymerase ribozyme fitness (log ratio)
22 | G52A A90G G93U U112C A119C | -1.55
23 | G93A A100G U112C U131A | -2.69
24 | C20U C85A | -3.94
25 | G117U G120A | -2.24
26 | A41G U81A | -1.07
27 | C49G C53G G69C C72U | -1.21
28 | G61U C94U | 0.338
29 | G61U U81A | -0.596
30 | C104U G110A | -0.458
31 | G42C C114A | -2.26
32 | A6C G57A C62G G120C | -4.68
33 | G61U G63A U96A A103G A111U G113A U132C | -6.45
34 | C8G C72G C82A C102U | -1.73
35 | C72G U78G G110U | -2.55
36 | A24U G45A G60A C115U | -6.73
37 | C12G C20U C123U U125C | -0.31
38 | C11U C72A U78A C97A | -5.56
39 | C13U C56U | 0.718
40 | U81A G113C U130G U132A | -3.31
41 | A121U G135C | 2.99
42 | G19A G63A | -3.09

Row | Variant | polymerase ribozyme fitness (log ratio)
43 | G47U A66U U125G | -3.75
44 | C28A G63A | -5.86
45 | G71U C94U G117C | -3.99
46 | G36A C53A U54G G120C | 0.74
47 | A43C C94U | -2.66
48 | U59G U92A | -3.4
49 | U92G G122U C124U U126C | -5.41
50 | C28A C76G G120A | -4.53
51 | C12U A41U C56A U87A C114U | -3.21
52 | C11G G61C U78A U126A | -0.897
53 | U9G G36U G60C A68G U78A C88A | -6.1
54 | G42U G93C U133A | -3.57
55 | A2G G107U | -5.37
56 | G39U A41U C104U C123A | -2.95
57 | A26U A37U G52U A90U U112C | -6.53
58 | C70U C101A | -1.9
59 | C20G C40U C124U U126C | -4.35
60 | C28U G39C C56G C104U | -5.32
61 | C8U U96A U125G U131C | -1.53
62 | C114A U116G | -3.78
63 | G19C C22U A46C C114U | -5.79

Row | Variant | polymerase ribozyme fitness (log ratio)
64 | A95C C101U U106A | -0.358
65 | G57U A105G G113A | -4.1
66 | C40G G69A C79U | -2.89
67 | A29C A41G | -2.15
68 | C13G G47U U87A C88U G110U | -6.69
69 | C12A U21A C53A G71U C98U | -4.86
70 | C94A G128A U129G | -3.11
71 | C8U C73U G120A | 1.89
72 | C97G G127U | -3.75
73 | U9G C13A U59A C72A | -1.53
74 | A29G U87A C104G A111U | -4.03
75 | A2U A108G | -3.51
76 | A91C C98G G113A | -5.51
77 | C4U A37G A50C C82A | -1.39
78 | G51A A121U | -0.44
79 | G10U C15U A91C U125A | -3.89
80 | A5U C62G | -1.69
81 | G117A A121C | -0.623
82 | U7A C8G A16C A46U | -0.61
83 | C53A G61U C82G A84G | -0.925

— the RNAGym collection of RNA variant scans (doi:10.1073/pnas.2313332121)
